Experimental data taken from patent US20240025971A1 (ATRECA, published 2024).

Columns and labels:
[1] = target: T1, SARS-CoV-2 S2 protein (SARS-CoV-2, UniProt P0DTC2 686-1213); assay: BLI
T1 construct: domain: S2 protein; also called S2 monomer

[2] = target: SARS-CoV-2 Nucleocapsid (N) protein (SARS-CoV-2, UniProt P0DTC9 1-419); assay: BLI
[3] = target: SARS-CoV-2 Envelope (E) protein (SARS-CoV-2, UniProt P0DTC4 1-75); assay: ELISA
[4] = target: SARS-CoV-1 spike (pseudovirus) (SARS-CoV-1, UniProt P59594 14-1255); assay: cell-based or functional assay
[5] = target: SARS-CoV-2 Wuhan-1 full-length Spike protein (SARS-CoV-2, UniProt P0DTC2 14-1273); assay: cell-based or functional assay
[6] = target: T2, SARS-CoV-2 Spike (S) trimer (SARS-CoV-2, UniProt P0DTC2 14-1208); assay: ELISA, S trimer coated, 1:50 dilution
T2 construct: also called Spike trimer

[7] = target: T3, SARS-CoV-2 Receptor Binding Domain (RBD) (SARS-CoV-2, UniProt P0DTC2 319-541); assay: BLI
T3 construct: also called RBD protein

[8] = target: T4, SARS-CoV-2 S1 protein (SARS-CoV-2, UniProt P0DTC2 16-685); assay: BLI
T4 construct: domain: S1 protein; also called S1 monomer

[9] = target: T2, SARS-CoV-2 Spike (S) trimer; assay: ELISA

Binder	binding result [1]	binding result [2]	Optical Density (OD; 450 nm) [6]	binding result [8]	further results
AB-009610 (antibody, V domains shown, human IgG1) VH: QVQLVQSGAEVKKPGSSVKVSCKASGGTFSNYAISWVRQAPGQGLEWMGRIIPILGIANYAQKFQGRVTITADKSTSTAYMELSSLRSEDTAVYYCATTPYYYDSSGYYLDYWGQGTLVTVSS VL: not shown	no binding (tested: 300 nM)	no binding (tested: 300 nM)	2.02 OD450		binding result [3]: no binding (tested: 2-fold over hIgG1 background); Pseudovirus Neutralization [4]: > 50 µg/mL; Pseudovirus Neutralization [5]: 6.77 µg/mL
AB-009095 (antibody, V domains shown, human IgG1) VH: EVQLVQSGAEVKKPGESLIISCTGSGYTFATFWITWVRQMPGKGLEWLGRIDPSDSYTNYNPSFQGHVTVSVDRSINTAYLELTSLKASDTAIYYCARQMYNTGWPIPNYSDYWGQGTLVTVSS VL: QSALTQPPSASGSPGQSVTISCAGASTDVGVYNFVSWYQQHPGKAPKLIIFDVNKRPSGVPDRFSGSKSGNTASLTVSGLQAEDEADYYCSSYEVGNNFVFGTGTKVTVL				no binding (tested: 300 nM)	binding result [7]: no binding (tested: 300 nM)
AB-009110 (antibody, V domains shown, human IgG1) VH: QVQLVQSGAEVKEPGASVKVSCNASGYIFTSYGISWVRQAPGQGLEWVGWISGNNGNTNYAQKFQGRVTLTTDTSTSTAYLELRSLTSADTGVYFCARARLPSAYWGPGTLLTVSS VL: EILLTQSPATLSVSPGERGSLSCRASQSVGTNLAWYQQKPGQAPRLLIYGASARATGIPARFSGSGSGTEFTLTISSLQSEDFGVYYCQQYNDWPPWTFGQGTKVEIK			0.081 OD450		
AB-009106 (antibody, V domains shown, human IgG1) VH: QVQLAQSGAEVKRPGASVKVSCKASGFDLTTYGVGWVRQAPGQGLEWMGWISGSSGDTHYAQQFQDRVTMTTDTPTSTAYMELRSLRSDDTAVYYCVRENIAHYGSRTFLVRYYRGMDVWGQGTTVTVAS VL: QSALTQPASVSGSPGQSITITCTGSSSDIGGFDFVSWYQQYPGKAPKLVISEVTNRPSGVSIRFSGSKSGNTASLTISGLQAEDEADYYCSSYASSYPTTNTRVFGTGTKVTVL			0.1 OD450		
AB-009078 (antibody, V domains shown, human IgG1) VH: QITLKESGPTLVKPTQTLTLTCTFSGFSLSTSGVGVGWIRQPPGKALEWLALIYWDDDKRYSPSLKSRLTITKDTSKNQVVLTMTNMDPVDTATYYCAHRPGDFWSGYYRYWGQGTLVTVSS VL: not shown				no binding (tested: 300 nM)	binding result [7]: no binding (tested: 300 nM)
AB-009083 (antibody, V domains shown, human IgG1) VH: EVHLLESGGGLVQPGGSLTLTCAASGFSFGNYVMGWVRQAPGKGLEWVSSIFGSGANPHYGGSVKGRFTISRDNSQNTLFLQMDSLTAEDTAVYYCARDGGTMVGGIITGGFNYFDSWGQGTLVTVSS VL: EIVLTQSPASLSLSPGGWATLSCRASRSIGNSLAWYQQRPGQAPRLLIYDASNRATGIPARFSGSGSGTDFTLTISSLEPEDFAIYYCQQRNSWPPLYTFGQGTKLEIK			0.249 OD450		
AB-009665 (antibody, V domains shown, human IgG1) VH: QVQLVQSGAEVKKPGASVKVSCKVSGYTLIELSMHWVRQAPGKGLEWMGGFDPEDGETIYAQKFQGRVTMTEDTSTDTAYMELSSLRSEDTAVYYCAAARVFGVATWFDPWGQGTLVTVSS VL: QSVLTQPPSVSAAPGQKVTISCSGSSSNIGNNYVSWYQQLPGTAPKLLIYDNNKRPSGIPDRFSGSKSGTSATLGITGLQTGDEADYYCGTWDSSLSAGVFGGGTKLTVL	no binding (tested: 300 nM)		1.38 OD450	no binding (tested: 300 nM)	binding result [7]: no binding (tested: 300 nM)
AB-009080 (antibody, V domains shown, human IgG1) VH: QVQLQQWGAGLLKPSETLSLTCAVYGGSFSGYYWSWIRQPPGKGLEWIGEINHSGSTNYNPSLKSRVTISVDTSKNQFSLKLSSVTAADTAVYYCARGLPVTTFYYYYYGMDVWGQGTTVTVSS VL: not shown			0.166 OD450		
AB-009627 (antibody, V domains shown, human IgG1) VH: QVQLQQWGAGLLKPSETLSLTCAVYGGSFSGYYWSWIRQPPGKGLEWIGEINHSGSTNYNPSLKSRVTISVDTSKNQFSLKLSSVTAADTAVFYCARGGYSSSWYGEKYWFDPWGQGTLVTVSS VL: QSALTQPRSVSGSPGQSVTISCTGTSSDVGGYNYVSWYQQHPGKAPKLMIYDVSKRPSGVPDRFSGSKSGNTASLTISGLQAEDEADYYCCSYAGSPYVFGTGTKVTVL		no binding (tested: 300 nM)		no binding (tested: 300 nM)	binding result [3]: no binding (tested: 2-fold over hIgG1 background)
AB-009226 (antibody, V domains shown, human IgG1) VH: not shown VL: QSALTQPASVSGSPGQSITISCTGTSSDVGGYNYVSWYQQHPGKAPKLMIYEVSNRPSGVSNRFSGSKSGNTASLTISGLQAEDEADYYCSSYTSSSTLYVFGTGTKVTVL			2.33 OD450		
AB-010020 (antibody, V domains shown, human IgG1) VH: QMQLVQSGPEVKKPGTSVKVSCKASGFTFTSSAVQWVRQARGQRLEWIGWIVVGSGNTNYAQKFQERVTITRDMSTSTAYMELSSLRSEDTAVYYCAAPACSSTSCYDGFDIWGQGTMVTVSS VL: not shown	no binding (tested: 300 nM)				Pseudovirus Neutralization [4]: > 50 µg/mL; Pseudovirus Neutralization [5]: 0.004 µg/mL
AB-010021 (antibody, V domains shown, human IgG1; also called AB-0010021) VH: QMQLVQSGPEVKKPGTSVKVSCKASGFTFTSSAVQWVRQARGQRLEWIGWIVVGSGNTNYAQKFQERVTITRDMSTSTAYMELSSLRSEDTAVYYCAAVYCSGGSCLDAFDIWGQGTMVTVSS VL: not shown	no binding (tested: 300 nM)				Pseudovirus Neutralization [4]: > 50 µg/mL; Pseudovirus Neutralization [5]: 1.56 µg/mL
AB-009251 (antibody, V domains shown, human IgG1) V domain 1: QVQLVQSGAEVKKPGASVKVSCKTSGYTFTTFYIHWVRQVPGQGLEWMGIINPDGGSTNYAQEFQARVTMTTDTSTSTAYMELSSLRFEDTAVFYCATSLGAPPGLSPRTGPQRRGPPGFDFWGQGTLITVSA V domain 2: QSVLTQPPSVSGAPGQRVTISCTGSSSNIGAGYDVHWYQQLPGTAPKLLIFDNNNRPSGVPYRFSGSRSGTSASLAITGLQPEDEADYYCQSYDSSLSGRVFGGGTRVTVL	no binding (tested: 300 nM)	no binding (tested: 300 nM)	0.886 OD450		
AB-009119 (antibody, V domains shown, human IgG1) VH: EVQLVESGGGLVQPGGSLKLSCAASGFTFSGSAMHWVRQASGKGLEWVGRIRSKANSYATAYAASVKGRFTISRDDSKNTAYLQMNSLKTEDTAVYYCTRHGTTVNWGQGTLVTVSS VL: not shown				no binding (tested: 300 nM)	binding result [7]: no binding (tested: 300 nM)
AB-009213 (antibody, V domains shown, human IgG1) VH: EVQLVESGGGLVKPGGSLRLSCAASGFTFSSYSMNWVRQAPGKGLEWVSSISSSSSYIYYADSVKGRFTISRDNAKNSLYLQMNSLRAEDTAVYYCARDKLREDGDYDDAFDIWGQGTMVTVSS VL: not shown	no binding (tested: 300 nM)			no binding (tested: 300 nM)	binding result [7]: no binding (tested: 300 nM); binding result [9]: no binding (tested: 2-fold over hIgG1 background)
AB-009271 (antibody, V domains shown, human IgG1) VH: EVQLVESGGGLIQPGGSLRLSCAASGFIVSSNYMSWVRQAPGKGLEWVSVIYSGGSTYYADSVKGRFTISRDNSKNTLYLQMNSLRAEDTAVYYCARDYGDFYFDYWGQGTLVTVSS VL: EIVMTQSPATLSVSPGERATLSCRASQSVSSNLAWYQQKPGQAPRLLIYGASTRATGIPARFSGSGSGTEFTLTISSLQSEDFAVYYCQQYYNWPRTFGQGTKVEIK	no binding (tested: 300 nM)	no binding (tested: 300 nM)	2.94 OD450		binding result [3]: no binding (tested: 2-fold over hIgG1 background); Pseudovirus Neutralization [4]: > 50 µg/mL; Pseudovirus Neutralization [5]: 0.058 µg/mL
AB-009613 (antibody, V domains shown, human IgG1) VH: EVQLVESGGGLIQPGGSLRLSCAASGFTVSSNYMSWVRQAPGKGLEWVSVIYSGGSTYYADSVKGRFTISRDNSKNTLYLQMNSLRAEDTAVYYCARDYGDFYFDYWGQGTLVTVSS VL: not shown	no binding (tested: 300 nM)	no binding (tested: 300 nM)	2.47 OD450		binding result [3]: no binding (tested: 2-fold over hIgG1 background); Pseudovirus Neutralization [4]: > 50 µg/mL; Pseudovirus Neutralization [5]: 1.53 µg/mL
AB-009666 (antibody, V domains shown, human IgG1) VH: EVQLVESGGGLVQPGGSLRLSCAASGFTFSSYDMHWVRQATGKGLEWVSTIGTAGDTYYPGSVKGRFTISRENAKNSLYLQMNSLRAEDTAVYYCARVNYDSSGYPTYWYFDLWGRGTLVTVSS VL: DIQMTQSPSSLSASVGDRVTITCRASQSISRYLNWYQQKPGKAPKLLIYAASSLQSGVPSRFSGSGSGTDFTLTISSLQPEDFATYNCQQSYSSPPWTFGQGTKVEIK	no binding (tested: 300 nM)	no binding (tested: 300 nM)	2.76 OD450		binding result [3]: no binding (tested: 2-fold over hIgG1 background)
